Data from patent US20190117772, “METHODS FOR THE TREATMENT OF CARDIAC HYPERTROPHY” (UNIVERSITY OF CINCINNATI, published 2019).

Target: HuR (Human antigen R, ELAVL1) (UniProt Q15717 Q15717:1-326)
Test: SPR; localized SPR (LSPR) on gold nanoparticle arrays; sizable red shift on HuR addition; inhibitor CMLD-1 disrupted binding (10 nm leftward shift)
Settings: tags: Novus Biologicals H00001994-P01; tethered by base pairing to thiolated ssDNA on gold nanoparticles
Description: Next a target RNA strand containing a DNA hybridizing region, which binds via base pair matching with the ssDNA on the nanoparticle, and a hairpin loop containing a HuR target binding site. The specific target RNA strand used (SEQ ID NO 7) contains a specific HuR binding motif, has the RNA sequence 5′-GCG-AAU-UGG-GCC-CGA-CGU-CGC-AUG-GCU-UUU-AUU-UAU-UUU-GCA-UGG-CCG-CGG-GAU-3′, and was from Integrated DNA Technologies (IDT). Last, the HuR protein is added and binds to its target site withing the RNA hairpin loop. The specific HuR protein used was a recombinant HuR protein from Novus Biologicals (product #:H00001994-P01). For each step of the assembly, sizable LSPR shifts were observed, confirming our ability to quantitatively measure the expected binding at each step (FIG. 11A-C).

Sequence of HuR (Human antigen R, ELAVL1) (Q15717 whole entry, one chain of several): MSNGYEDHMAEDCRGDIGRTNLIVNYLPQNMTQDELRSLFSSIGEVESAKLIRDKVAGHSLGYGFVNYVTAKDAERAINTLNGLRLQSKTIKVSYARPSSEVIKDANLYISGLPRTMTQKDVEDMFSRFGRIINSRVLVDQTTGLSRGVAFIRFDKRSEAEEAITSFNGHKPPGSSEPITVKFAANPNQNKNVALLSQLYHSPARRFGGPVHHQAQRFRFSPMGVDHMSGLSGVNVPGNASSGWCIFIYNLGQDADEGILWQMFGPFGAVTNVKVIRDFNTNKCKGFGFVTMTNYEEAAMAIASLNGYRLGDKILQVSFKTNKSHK

B1: HuR target RNA with DNA-hybridizing region and hairpin loop (ssRNA)
RNA: GCGAAUUGGGCCCGACGUCGCAUGGCUUUUAUUUAUUUUGCAUGGCCGCGGGAU
Does B1 bind?
Result: binds
